Test results taken from publication PMC4368477.

Biological target: HA head of H1N1 A/Solomon Islands/3/2006 (Influenza A virus, A/Solomon Islands/3/2006 (H1N1))
Experiment: BLI

Substance CH65 Fab has a koff of 0.013 s⁻¹ and a kon of 42900 M⁻¹ s⁻¹.
